B1: Tumor protein 63 (Homo sapiens), Q9H3D4 (parent)
chain: MNFETSRCATLQYCPDPYIQRFVETPAHFSWKESYYRSTMSQSTQTNEFLSPEVFQHIWDFLEQPICSVQPIDLNFVDEPSEDGATNKIEISMDCIRMQDSDLSDPMWPQYTNLGLLNSMDQQIQNGSSSTSPYNTDHAQNSVTAPSPYAQPSSTFDALSPSPAIPSNTDYPGPHSFDVSFQQSSTAKSATWTYSTELKKLYCQIAKTCPIQIKVMTPPPQGAVIRAMPVYKKAEHVTEVVKRCPNHELSREFNEGQIAPPSHLIRVEGNSHAQYVEDPITGRQSVLVPYEPPQVGTEFTTVLYNFMCNSSCVGGMNRRPILIIVTLETRDGQVLGRRCFEARICACPGRDRKADEDSIRKQQVSDSTKNGDGTKRPFRQNTHGIQMTSIKKRRSPDDELLYLPVRGRETYEMLLKIKESLELMQYLPQHTIETYRQQQQQQHQHLLQKQTSIQSPSSYGNSSPPLNKMNSMNKLPSVSQLINPQQRNALTPTTIPDGMGANIPMMGTHMPMAGDMNGLSPTQALPPPLSMPSTSHCTPPPPYPTDCSIVSFLARLGCSSCLDYFTTQGLTTIYQIEHYSMDDLASLKIPEQFRHAIWKGILDHRQLHEFSSPSHLLRTPSSASTVSVGSSETRGERVIDAVRFTLRQTISFPPRDEWNDFNFDMDARRNKQQRIKEEGE

The test covers variants of B1. The settings on record: with hipk2_human HIPK2, Q9H2X6.
Sequence of hipk2_human HIPK2, Q9H2X6 (Q9H2X6 whole entry, looked up): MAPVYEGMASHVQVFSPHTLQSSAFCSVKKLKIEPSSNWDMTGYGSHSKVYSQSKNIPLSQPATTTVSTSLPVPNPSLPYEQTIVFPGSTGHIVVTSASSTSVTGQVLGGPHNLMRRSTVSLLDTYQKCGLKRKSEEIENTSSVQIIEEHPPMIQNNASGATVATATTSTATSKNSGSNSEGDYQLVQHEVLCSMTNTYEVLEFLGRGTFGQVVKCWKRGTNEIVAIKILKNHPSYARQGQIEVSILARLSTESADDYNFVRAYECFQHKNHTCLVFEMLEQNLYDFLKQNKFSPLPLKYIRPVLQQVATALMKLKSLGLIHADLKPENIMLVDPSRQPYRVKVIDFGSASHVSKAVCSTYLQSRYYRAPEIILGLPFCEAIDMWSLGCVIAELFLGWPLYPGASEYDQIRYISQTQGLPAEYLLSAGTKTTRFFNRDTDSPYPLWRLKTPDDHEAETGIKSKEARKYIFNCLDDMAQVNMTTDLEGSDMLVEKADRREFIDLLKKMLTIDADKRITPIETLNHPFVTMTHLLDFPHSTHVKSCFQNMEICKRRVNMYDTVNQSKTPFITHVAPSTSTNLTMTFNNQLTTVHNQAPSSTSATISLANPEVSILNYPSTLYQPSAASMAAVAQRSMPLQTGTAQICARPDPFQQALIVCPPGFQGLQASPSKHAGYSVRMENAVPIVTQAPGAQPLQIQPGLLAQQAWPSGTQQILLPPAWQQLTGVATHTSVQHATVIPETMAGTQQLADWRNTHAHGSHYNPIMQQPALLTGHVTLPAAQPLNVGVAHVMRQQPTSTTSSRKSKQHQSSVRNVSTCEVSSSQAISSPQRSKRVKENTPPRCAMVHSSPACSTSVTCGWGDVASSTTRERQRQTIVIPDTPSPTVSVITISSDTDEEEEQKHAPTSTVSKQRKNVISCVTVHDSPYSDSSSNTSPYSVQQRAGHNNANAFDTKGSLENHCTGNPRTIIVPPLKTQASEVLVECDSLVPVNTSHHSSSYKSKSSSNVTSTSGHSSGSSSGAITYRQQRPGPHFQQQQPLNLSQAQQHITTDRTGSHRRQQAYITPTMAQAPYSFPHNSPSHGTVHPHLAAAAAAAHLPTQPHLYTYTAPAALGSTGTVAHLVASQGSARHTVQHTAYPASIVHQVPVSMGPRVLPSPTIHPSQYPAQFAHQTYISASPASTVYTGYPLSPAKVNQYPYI
Turning to T491A, the “effect of a mutation on the interaction” value is reported as “disrupting interaction strength”.

The values above are taken from IntAct's records for PubMed 21602882.
